Several values for one entry are separate records, joined by “and”; a condition that tells them apart may be missing. Identical values can stand only once.
B2: DRB7.2 (M1-V190) (natural protein, A. thaliana, UniProt F4JHB3 1-190, looked up)
chain: MDLPPPESSSNPISSFSVAQKRMLLQRCESKFKIRKLNDTVEEDNVTQMEPNFTLENTLVSEPEADLRPHTTEPTTEEETQRSSAKSQLYNLCSVRHWKAPLYEYIAEGPCHMKIFTGKVTVEMKEDSRITVLECFGNPQYKKKIAAEQAAEAALWYLKNVGYTLQTEKASGRKGRSKPISKMMVTGEPV
notes: DRB7.2, A. thaliana, UniProt F4JHB3, residues M1-V190; Perdeuterated and U-15N labelled for NMR; Further cloning details are in Paturi & Deshmukh, 2023; also called full-length DRB7.2
B3: DRB4 (1-355) (natural protein, A. thaliana, UniProt Q8H1D4 1-355, looked up)
chain: MDHVYKGQLQAYALQHNLELPVYANEREGPPHAPRFRCNVTFCGQTFQSSEFFPTLKSAEHAAAKIAVASLTPQSPEGIDVAYKNLLQEIAQKESSLLPFYATATSGPSHAPTFTSTVEFAGKVFSGEEAKTKKLAEMSAAKVAFMSIKNGNSNQTGSPTLPSERQEDVNSNVKSSPQEIHSQPSSKVVMTPDTPSKGIKVNEDEFPDLHDAPASNAKEINVALNEPENPTNDGTLSALTTDGMKMNIASSSLPIPHNPTNVITLNAPAANGIKRNIAACSSWMPQNPTNDGSETSSCVVDESEKKKLIMGTGHLSIPTGQHVVCRPWNPEITLPQDAEMLFRDDKFIAYRLVKP
notes: DRB4, A. thaliana, UniProt Q8H1D4, residues 1-355; source: cloned, expressed and purified as described (Chiliveri et al, 2017)

Columns and labels:
[1] = target: T1, DRB7.2M (T71-G162) (A. thaliana, UniProt F4JHB3 71-162); experiment: ITC; DRB4 constructs (200 μM, syringe) injected into DRB7.2 or DRB7.2M (20 μM, cell); 25 °C; 50 mM potassium phosphate pH 7.0, 50 mM NaCl, 50 mM Na2SO4, 2 mM DTT; details: both partners purified
T1 construct: DRB7.2, A. thaliana, UniProt F4JHB3, residues T71-G162 (dsRBD S84-G162 with the N-terminal flanking residues T71-S83); Isotope labelled (15N, 13C, 2H) or perdeuterated for NMR; Further cloning details are in Paturi & Deshmukh, 2023; also called dsRBD region of DRB7.2; DRB7.2 dsRBD
T1 sequence (looked up): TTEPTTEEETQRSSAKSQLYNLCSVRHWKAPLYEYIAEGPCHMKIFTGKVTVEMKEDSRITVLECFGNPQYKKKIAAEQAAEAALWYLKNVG

[2] = target: B2; experiment: as above; details: both partners purified
[3] = target: T1, DRB7.2M (T71-G162); experiment: MALDI-TOF MS; samples after SEC; 0.5 mg/mL, 2 mg/mL and 5 mg/mL; details: both partners purified
[4] = target: T1, DRB7.2M (T71-G162); experiment: ITC; DRB4D3 and the preformed complex of DRB7.2M:80 bp dsRNA; one site binding model; details: both partners purified
[5] = target: T2, DRB4C (154-355) (A. thaliana, UniProt Q8H1D4 154-355); experiment: ITC; DRB4 constructs (200 μM, syringe) injected into DRB7.2 or DRB7.2M (20 μM, cell); 25 °C; 50 mM potassium phosphate pH 7.0, 50 mM NaCl, 50 mM Na2SO4, 2 mM DTT; details: both partners purified
T2 construct: DRB4, A. thaliana, UniProt Q8H1D4, residues 154-355 (flexible segment N154-S293 and domain D3 E294-P355); source: cloned, expressed and purified as described (Chiliveri et al, 2017)
T2 sequence (looked up): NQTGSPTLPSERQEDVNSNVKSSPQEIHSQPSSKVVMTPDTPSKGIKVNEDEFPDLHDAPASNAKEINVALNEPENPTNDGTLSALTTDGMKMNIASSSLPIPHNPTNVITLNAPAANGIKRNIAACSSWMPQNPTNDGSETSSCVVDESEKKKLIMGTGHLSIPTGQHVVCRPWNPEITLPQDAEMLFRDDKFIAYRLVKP

[6] = target: B3; experiment: as above; details: both partners purified
[7] = target: T3, DRB7.2 (Arabidopsis thaliana, UniProt F4JHB3 1-190); experiment: EMSA; apparent Kd; Hill 2.68±0.77; EMSA: 50 mM potassium phosphate pH 7.0, 50 mM NaCl, 50 mM Na2SO4, 2 mM DTT; 40 bp RNA at 750 nM, 30 min, room temperature; 32P 80 bp dsRNA at 1 nM, 1 h, 4 C; details: protein: recombinant, tags: His6 tag with TEV cleavage (pETtrx-1b), label: none (SYBR Gold stain), 1 nt 3' overhang (C) on complementary strand
T3 sequence: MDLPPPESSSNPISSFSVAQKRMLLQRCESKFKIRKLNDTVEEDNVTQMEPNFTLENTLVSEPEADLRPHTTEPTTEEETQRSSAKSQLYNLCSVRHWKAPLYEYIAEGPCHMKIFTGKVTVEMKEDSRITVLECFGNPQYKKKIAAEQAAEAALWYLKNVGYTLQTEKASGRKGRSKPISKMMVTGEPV

[8] = target: T4, DRB4 (Arabidopsis thaliana, UniProt Q8H1D4 1-355); experiment: EMSA; apparent Kd; Hill 2.44±0.45; EMSA: 50 mM potassium phosphate pH 7.0, 50 mM NaCl, 50 mM Na2SO4, 2 mM DTT; 40 bp RNA at 750 nM, 30 min, room temperature; 32P 80 bp dsRNA at 1 nM, 1 h, 4 C; details: protein: recombinant, label: none (SYBR Gold stain), 1 nt 3' overhang (C) on complementary strand
T4 sequence: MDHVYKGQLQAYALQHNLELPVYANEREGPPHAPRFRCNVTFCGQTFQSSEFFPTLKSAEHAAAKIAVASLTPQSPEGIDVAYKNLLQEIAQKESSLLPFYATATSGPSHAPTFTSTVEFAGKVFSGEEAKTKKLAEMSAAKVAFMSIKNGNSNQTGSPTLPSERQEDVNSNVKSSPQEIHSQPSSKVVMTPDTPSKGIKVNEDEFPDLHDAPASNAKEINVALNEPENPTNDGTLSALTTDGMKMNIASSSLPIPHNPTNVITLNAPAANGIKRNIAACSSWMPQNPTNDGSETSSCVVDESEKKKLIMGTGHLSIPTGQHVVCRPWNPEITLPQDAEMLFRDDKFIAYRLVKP

[9] = target: T5, DRB7.2;DRB4 (Arabidopsis thaliana;Arabidopsis …, UniProt F4JHB3;Q8H1D4 1-190;1-355, |); experiment: EMSA; apparent Kd; Hill 2.05±0.65; EMSA: 50 mM potassium phosphate pH 7.0, 50 mM NaCl, 50 mM Na2SO4, 2 mM DTT; 40 bp RNA at 750 nM, 30 min, room temperature; 32P 80 bp dsRNA at 1 nM, 1 h, 4 C; details: protein: recombinant;recombinant, tags: His6 tag with TEV cleavage (pETtrx-1b);, label: none (SYBR Gold stain), 1 nt 3' overhang (C) on complementary strand
T5 sequence 1: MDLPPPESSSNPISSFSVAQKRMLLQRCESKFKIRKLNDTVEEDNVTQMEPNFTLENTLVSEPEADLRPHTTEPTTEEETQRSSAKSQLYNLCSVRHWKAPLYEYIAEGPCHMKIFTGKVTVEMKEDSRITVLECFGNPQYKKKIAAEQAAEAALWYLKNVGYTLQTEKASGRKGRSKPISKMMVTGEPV
T5 sequence 2: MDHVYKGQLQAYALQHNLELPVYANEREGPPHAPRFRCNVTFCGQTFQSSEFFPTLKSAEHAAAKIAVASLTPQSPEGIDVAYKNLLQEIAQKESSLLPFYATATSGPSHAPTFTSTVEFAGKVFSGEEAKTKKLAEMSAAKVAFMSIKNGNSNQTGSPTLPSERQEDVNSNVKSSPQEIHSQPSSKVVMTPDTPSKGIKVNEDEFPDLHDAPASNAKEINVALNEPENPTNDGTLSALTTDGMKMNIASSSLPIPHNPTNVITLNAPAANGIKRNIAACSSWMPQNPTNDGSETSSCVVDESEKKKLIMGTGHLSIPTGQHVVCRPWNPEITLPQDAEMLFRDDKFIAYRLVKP

[10] = target: T6, DRB7.2N (Arabidopsis thaliana, UniProt F4JHB3 1-81); experiment: EMSA; 20 uM protein, 750 nM RNA; EMSA: 50 mM potassium phosphate pH 7.0, 50 mM NaCl, 50 mM Na2SO4, 2 mM DTT; 40 bp RNA at 750 nM, 30 min, room temperature; 32P 80 bp dsRNA at 1 nM, 1 h, 4 C; details: protein: recombinant, tags: His6 (pET28a), label: none (SYBR Gold stain), 1 nt 3' overhang (C) on complementary strand
T6 sequence: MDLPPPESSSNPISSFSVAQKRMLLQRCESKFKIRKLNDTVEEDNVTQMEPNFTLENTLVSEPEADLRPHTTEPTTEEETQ

[11] = target: T7, DRB4D3 (Arabidopsis thaliana, UniProt Q8H1D4 294-355); experiment: EMSA; 20 uM protein, 750 nM RNA; also higher concentrations; EMSA: 50 mM potassium phosphate pH 7.0, 50 mM NaCl, 50 mM Na2SO4, 2 mM DTT; 40 bp RNA at 750 nM, 30 min, room temperature; 32P 80 bp dsRNA at 1 nM, 1 h, 4 C; details: protein: recombinant, label: none (SYBR Gold stain), 1 nt 3' overhang (C) on complementary strand
T7 sequence: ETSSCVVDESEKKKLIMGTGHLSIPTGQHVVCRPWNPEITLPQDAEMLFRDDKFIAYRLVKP

[12] = target: T7, DRB4D3; experiment: EMSA; EMSA: 50 mM potassium phosphate pH 7.0, 50 mM NaCl, 50 mM Na2SO4, 2 mM DTT; 40 bp RNA at 750 nM, 30 min, room temperature; 32P 80 bp dsRNA at 1 nM, 1 h, 4 C; details: protein: recombinant; Methods text mentions 1 nt 3' overhang
[13] = target: T3, DRB7.2; experiment: EMSA; saturation at ~2 uM; 1 nM RNA, 4 C; EMSA: 50 mM potassium phosphate pH 7.0, 50 mM NaCl, 50 mM Na2SO4, 2 mM DTT; 40 bp RNA at 750 nM, 30 min, room temperature; 32P 80 bp dsRNA at 1 nM, 1 h, 4 C; details: protein: recombinant; tags: His6 tag with TEV cleavage (pETtrx-1b); Methods text mentions 1 nt 3' overhang
[14] = target: T8, DRB7.2M (Arabidopsis thaliana, UniProt F4JHB3 71-162); experiment: as above; details: protein: recombinant; tags: His6 tag with TEV cleavage (pETtrx-1b); Methods text mentions 1 nt 3' overhang
T8 sequence: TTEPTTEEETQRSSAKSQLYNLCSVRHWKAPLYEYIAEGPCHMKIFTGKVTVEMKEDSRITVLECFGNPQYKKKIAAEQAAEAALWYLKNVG

[15] = target: T9, DRB7.2M;DRB4D3 (Arabidopsis thaliana;Arabidopsis …, UniProt F4JHB3;Q8H1D4 71-162;294-355, |); experiment: EMSA; saturation at ~2 uM; 1 nM RNA, 4 C; ternary complex also in Fig. S11D; EMSA: 50 mM potassium phosphate pH 7.0, 50 mM NaCl, 50 mM Na2SO4, 2 mM DTT; 40 bp RNA at 750 nM, 30 min, room temperature; 32P 80 bp dsRNA at 1 nM, 1 h, 4 C; details: protein: recombinant;recombinant; tags: His6 tag with TEV cleavage (pETtrx-1b);; copies: 1;1; Methods text mentions 1 nt 3' overhang
T9 sequence 1: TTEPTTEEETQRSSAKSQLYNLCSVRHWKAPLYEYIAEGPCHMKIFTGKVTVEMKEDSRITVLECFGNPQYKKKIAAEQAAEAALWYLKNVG
T9 sequence 2: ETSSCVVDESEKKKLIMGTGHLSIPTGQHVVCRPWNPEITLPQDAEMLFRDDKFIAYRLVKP

B1: DRB4D3 (294-355) (domain or fragment, A. thaliana, UniProt Q8H1D4 294-355, looked up)
chain: ETSSCVVDESEKKKLIMGTGHLSIPTGQHVVCRPWNPEITLPQDAEMLFRDDKFIAYRLVKP
notes: DRB4, A. thaliana, UniProt Q8H1D4, residues 294-355 (E294-P355); Isotope labelled (15N, 13C, 2H) or perdeuterated for NMR; source: cloned, expressed and purified as described (Chiliveri et al, 2017)
**Q.** B1 was tested. Which Kd [1] did it give?
**A.** 2.84 ± 1.15 nM

**Q.** What about the “stoichiometry N” value [1] of the same binder?
**A.** 0.95

**Q.** What about the Kd [2] of the same binder?
**A.** 2.2 ± 1.2 nM

**Q.** What about the “stoichiometry N” value [3] of the same binder?
**A.** 1

**Q.** What about the Kd [4] of the same binder?
**A.** 9.43 nM and ~9.5 nM

**Q.** What about the “stoichiometry N” value [4] of the same binder?
**A.** 0.81

**Q.** Which results are given for B2?
**A.** Kd [5]: 2.8 ± 1.6 nM; Kd [6]: 3.1 ± 1.5 nM

**Q.** For B3, which “stoichiometry N” value [2] is on record?
**A.** 0.8

B4: 40 bp RNA (pre-siRNA) (dsRNA)
RNA 1: AACAAGCGAAUGAGUCAUUCAUCCUAAGUCUGCAUAAAGU
RNA 2: ACUUUAUGCAGACUUAGGAUGAAUGACUCAUUCGCUUGUUC
modifications: 5'-phosphate on guide strand
**Q.** With B4 as the binder, how does the Kd [7] read?
**A.** 2280 ± 270 nM

**Q.** And the Kd [8]?
**A.** 3600 ± 310 nM

**Q.** What about the Kd [9] of the same binder?
**A.** 1020 ± 170 nM

**Q.** Does B4 bind [10]?
**A.** no binding

**Q.** Does B4 bind [11]?
**A.** no binding

B5: 80 bp dsRNA (dsRNA)
RNA 1: GGGUGCUGUUUCUCGUGUUCGUGUUCGUUUCUCUUCUCUUGUCCUUGUUCUGUUCUCCUUUGUUCGUUCCUGUUCCCCUU
RNA 2: AAGGGGAACAGGAACGAACAAAGGAGAACAGAACAAGGACAAGAGAAGAGAAACGAACACGAACACGAGAAACAGCACCC
**Q.** Does B5 bind [12]?
**A.** no binding

**Q.** Does B5 bind [13]?
**A.** binds

**Q.** Does B5 bind [14]?
**A.** binds

**Q.** Does B5 bind [15]?
**A.** binds

Reference: publication doi:10.1101/2025.01.15.633165, “The mechanism of DRB7.2:DRB4 mediated sequestering of endogenous inverted-repeat dsRNA precursors in plants” (bioRxiv, 2025)
